Test results: patent publication US20210403591A1 (OSSIANIX, published 2021)
Numbering of substitutions follows the chain as printed.

Legend:
Test in all cases: FACS, transfected Expi293 cells
[1] = molecular target: T1, mTfR-1 K226A on Expi293 cells (mouse, UniProt Q62351 1-763)
T1 construct: whole, on cells
Description: (§1) Transfected Expi293 cells were harvested and 2×10⁵ cells were transferred into V-bottom 96-well plate for staining. The cells were blocked in PBS containing 1% BSA (FACS buffer) for 10 min on ice, centrifuged to remove the buffer and 1 μl of 8D3-hFc formatted antibody, Clone C-hFc or Clone C variants 18 and 13 (Table 1), all at 1 mg/ml, was added to the wells. The cells were co-stained with mouse Tf-Alexa647 (Jackson ImmunoResearch). After 30 minutes on ice, the cells were washed and incubated with anti-hFc-PE (eBioscience) for 20 minutes on ice, washed again and resuspended in […] of FACS buffer containing 5 μl of propidium iodide (PI) to exclude dead cells from the analysis. The percentage of double-positive cells that stained with mTf and the tested antibody was determined on a CytoFlex cytometer (Beckman Coulter). The percentage of cells in the double positive quadrant (Q2) for WT mTfR-1 was used for normalization.

[2] = molecular target: T2, mTfR-1 P332A on Expi293 cells (mouse, UniProt Q62351 1-763)
T2 construct: whole, on cells
T2 sequence (Q62351 whole entry P332A): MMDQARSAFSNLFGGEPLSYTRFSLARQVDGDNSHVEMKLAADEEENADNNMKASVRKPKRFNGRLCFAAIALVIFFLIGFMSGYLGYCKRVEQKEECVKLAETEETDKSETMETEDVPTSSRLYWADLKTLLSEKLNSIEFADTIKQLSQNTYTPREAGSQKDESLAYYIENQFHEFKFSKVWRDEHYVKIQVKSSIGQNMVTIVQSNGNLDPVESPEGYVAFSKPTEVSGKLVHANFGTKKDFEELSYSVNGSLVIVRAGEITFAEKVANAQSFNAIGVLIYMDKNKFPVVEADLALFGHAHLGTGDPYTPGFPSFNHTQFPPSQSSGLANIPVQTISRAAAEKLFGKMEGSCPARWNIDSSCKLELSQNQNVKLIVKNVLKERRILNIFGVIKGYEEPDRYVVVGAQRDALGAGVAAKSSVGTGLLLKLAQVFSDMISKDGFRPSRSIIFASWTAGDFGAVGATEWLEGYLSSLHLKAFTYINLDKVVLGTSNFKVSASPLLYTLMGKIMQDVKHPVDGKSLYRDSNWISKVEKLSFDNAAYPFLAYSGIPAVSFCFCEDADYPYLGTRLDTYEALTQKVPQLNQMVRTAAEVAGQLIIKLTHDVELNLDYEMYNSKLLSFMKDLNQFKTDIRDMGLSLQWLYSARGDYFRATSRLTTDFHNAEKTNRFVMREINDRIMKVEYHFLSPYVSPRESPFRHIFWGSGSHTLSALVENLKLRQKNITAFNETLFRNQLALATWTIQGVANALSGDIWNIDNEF
Description: as §1

[3] = molecular target: T3, mTfR-1 T228A on Expi293 cells (mouse, UniProt Q62351 1-763)
T3 construct: whole, on cells
T3 sequence (Q62351 whole entry T228A): as the sequence (Q62351 whole entry P332A) above, with T228A, A332P counted along it
Description: as §1

[4] = molecular target: T4, mTfR-1 S329A on Expi293 cells (mouse, UniProt Q62351 1-763)
T4 construct: whole, on cells
T4 sequence (Q62351 whole entry S329A): as the sequence (Q62351 whole entry P332A) above, with S329A, A332P counted along it
Description: as §1

[5] = molecular target: T5, mTfR-1 Q274A on Expi293 cells (mouse, UniProt Q62351 1-763)
T5 construct: whole, on cells
T5 sequence (Q62351 whole entry Q274A): as the sequence (Q62351 whole entry P332A) above, with Q274A, A332P counted along it
Description: as §1

[6] = molecular target: T6, WT mTfR-1 expressed on Expi293 cells (mouse, UniProt Q62351 1-763)
T6 construct: whole, on cells
T6 sequence (Q62351 whole entry): as the sequence (Q62351 whole entry P332A) above, with A332P counted along it
Description: as §1

[7] = molecular target: T7, mTfR-1 I279A on Expi293 cells (mouse, UniProt Q62351 1-763)
T7 construct: whole, on cells
T7 sequence (Q62351 whole entry I279A): as the sequence (Q62351 whole entry P332A) above, with I279A, A332P counted along it
Description: as §1

[8] = molecular target: T8, mTfR-1 S225A on Expi293 cells (mouse, UniProt Q62351 1-763)
T8 construct: whole, on cells
T8 sequence (Q62351 whole entry S225A): as the sequence (Q62351 whole entry P332A) above, with S225A, A332P counted along it
Description: as §1

[9] = molecular target: T9, mTfR-1 S255A on Expi293 cells (mouse, UniProt Q62351 1-763)
T9 construct: whole, on cells
T9 sequence (Q62351 whole entry S255A): as the sequence (Q62351 whole entry P332A) above, with S255A, A332P counted along it
Description: as §1

[10] = molecular target: T10, mTfR-1 S326A on Expi293 cells (mouse, UniProt Q62351 1-763)
T10 construct: whole, on cells
T10 sequence (Q62351 whole entry S326A): as the sequence (Q62351 whole entry P332A) above, with S326A, A332P counted along it
Description: as §1

[11] = molecular target: T11, mTfR-1 L383A on Expi293 cells (mouse, UniProt Q62351 1-763)
T11 construct: whole, on cells
T11 sequence (Q62351 whole entry L383A): as the sequence (Q62351 whole entry P332A) above, with A332P, L383A counted along it
Description: as §1

[12] = molecular target: T12, mTfR-1 I198A on Expi293 cells (mouse, UniProt Q62351 1-763)
T12 construct: whole, on cells
T12 sequence (Q62351 whole entry I198A): as the sequence (Q62351 whole entry P332A) above, with I198A, A332P counted along it
Description: as §1

[13] = molecular target: T13, mTfR-1 S197A on Expi293 cells (mouse, UniProt Q62351 1-763)
T13 construct: whole, on cells
T13 sequence (Q62351 whole entry S197A): as the sequence (Q62351 whole entry P332A) above, with S197A, A332P counted along it
Description: as §1

[14] = molecular target: T14, mTfR-1 Q200A on Expi293 cells (mouse, UniProt Q62351 1-763)
T14 construct: whole, on cells
T14 sequence (Q62351 whole entry Q200A): as the sequence (Q62351 whole entry P332A) above, with Q200A, A332P counted along it
Description: as §1

[15] = molecular target: T15, mTfR-1 K380A on Expi293 cells (mouse, UniProt Q62351 1-763)
T15 construct: whole, on cells
T15 sequence (Q62351 whole entry K380A): as the sequence (Q62351 whole entry P332A) above, with A332P, K380A counted along it
Description: as §1

[16] = molecular target: T16, mTfR-1 P325A on Expi293 cells (mouse, UniProt Q62351 1-763)
T16 construct: whole, on cells
T16 sequence (Q62351 whole entry P325A): as the sequence (Q62351 whole entry P332A) above, with P325A, A332P counted along it
Description: as §1

[17] = molecular target: T17, mTfR-1 G254A on Expi293 cells (mouse, UniProt Q62351 1-763)
T17 construct: whole, on cells
T17 sequence (Q62351 whole entry G254A): as the sequence (Q62351 whole entry P332A) above, with G254A, A332P counted along it
Description: as §1

[18] = molecular target: T18, mTfR-1 V382A on Expi293 cells (mouse, UniProt Q62351 1-763)
T18 construct: whole, on cells
T18 sequence (Q62351 whole entry V382A): as the sequence (Q62351 whole entry P332A) above, with A332P, V382A counted along it
Description: as §1

[19] = molecular target: T19, mTfR-1 K191A on Expi293 cells (mouse, UniProt Q62351 1-763)
T19 construct: whole, on cells
T19 sequence (Q62351 whole entry K191A): as the sequence (Q62351 whole entry P332A) above, with K191A, A332P counted along it
Description: as §1

[20] = molecular target: T20, mTfR-1 N277A on Expi293 cells (mouse, UniProt Q62351 1-763)
T20 construct: whole, on cells
T20 sequence (Q62351 whole entry N277A): as the sequence (Q62351 whole entry P332A) above, with N277A, A332P counted along it
Description: as §1

[21] = molecular target: T21, mTfR-1 M202A on Expi293 cells (mouse, UniProt Q62351 1-763)
T21 construct: whole, on cells
T21 sequence (Q62351 whole entry M202A): as the sequence (Q62351 whole entry P332A) above, with M202A, A332P counted along it
Description: as §1

[22] = molecular target: T22, mTfR-1 G199A on Expi293 cells (mouse, UniProt Q62351 1-763)
T22 construct: whole, on cells
T22 sequence (Q62351 whole entry G199A): as the sequence (Q62351 whole entry P332A) above, with G199A, A332P counted along it
Description: as §1

[23] = molecular target: T23, mTfR-1 S275A on Expi293 cells (mouse, UniProt Q62351 1-763)
T23 construct: whole, on cells
T23 sequence (Q62351 whole entry S275A): as the sequence (Q62351 whole entry P332A) above, with S275A, A332P counted along it
Description: as §1

[24] = molecular target: T24, mTfR-1 N253A on Expi293 cells (mouse, UniProt Q62351 1-763)
T24 construct: whole, on cells
T24 sequence (Q62351 whole entry N253A): as the sequence (Q62351 whole entry P332A) above, with N253A, A332P counted along it
Description: as §1

[25] = molecular target: T25, mTfR-1 S328A on Expi293 cells (mouse, UniProt Q62351 1-763)
T25 construct: whole, on cells
T25 sequence (Q62351 whole entry S328A): as the sequence (Q62351 whole entry P332A) above, with S328A, A332P counted along it
Description: as §1

[26] = molecular target: T26, mTfR-1 K195A on Expi293 cells (mouse, UniProt Q62351 1-763)
T26 construct: whole, on cells
T26 sequence (Q62351 whole entry K195A): as the sequence (Q62351 whole entry P332A) above, with K195A, A332P counted along it
Description: as §1

[27] = molecular target: T27, mTfR-1 P335A on Expi293 cells (mouse, UniProt Q62351 1-763)
T27 construct: whole, on cells
T27 sequence (Q62351 whole entry P335A): as the sequence (Q62351 whole entry P332A) above, with A332P, P335A counted along it
Description: as §1

[28] = molecular target: T28, mTfR-1 V230A on Expi293 cells (mouse, UniProt Q62351 1-763)
T28 construct: whole, on cells
T28 sequence (Q62351 whole entry V230A): as the sequence (Q62351 whole entry P332A) above, with V230A, A332P counted along it
Description: as §1

[29] = molecular target: T29, mTfR-1 P324A on Expi293 cells (mouse, UniProt Q62351 1-763)
T29 construct: whole, on cells
T29 sequence (Q62351 whole entry P324A): as the sequence (Q62351 whole entry P332A) above, with P324A, A332P counted along it
Description: as §1

T1 sequence (Q62351 whole entry K226A): as the sequence (Q62351 whole entry P332A) above, with K226A, A332P counted along it

B1: 8D3 antibody (anti-mouse TfR-1 control; 8D3-hFc formatted antibody) (antibody, V domains shown)
VH: EVQLVESGGGLVQPGNSLTLSCVASGFTFSNYGMHWIRQAPKKGLEWIAMIYYDSSKMNYADTVKGRFTISRDNSKNTLYLEMNSLRSEDTAMYYCAVPTSHYVVDVWGQGVSVTVSS
VL: DIQMTQSPASLSASLEEIVTITCQASQDIGNWLAWYQQKPGKSPQLLIYGATSLADGVPSRFSGSRSGTQFSLKISRVQVEDIGIYYCLQAYNTPWTFGGGTKLELK
- % double-positive cells vs WT [1]: 111%
- % double-positive cells vs WT [2]: 57%
- % double-positive cells vs WT [3]: 89%
- % double-positive cells vs WT [4]: 18%
- % double-positive cells vs WT [5]: 87%
- % double-positive cells vs WT [6]: 100%
- % double-positive cells vs WT [7]: 74%
- % double-positive cells vs WT [8]: 64%
- % double-positive cells vs WT [9]: 56%
- % double-positive cells vs WT [10]: 31%
- % double-positive cells vs WT [11]: 73%
- % double-positive cells vs WT [12]: 94%
- % double-positive cells vs WT [13]: 100%
- % double-positive cells vs WT [14]: 66%
- % double-positive cells vs WT [15]: 66%
- % double-positive cells vs WT [16]: 119%
- % double-positive cells vs WT [17]: 58%
- % double-positive cells vs WT [18]: 82%
- % double-positive cells vs WT [19]: 91%
- % double-positive cells vs WT [20]: 56%
- % double-positive cells vs WT [21]: 81%
- % double-positive cells vs WT [22]: 69%
- % double-positive cells vs WT [23]: 70%
- % double-positive cells vs WT [24]: 87%
- % double-positive cells vs WT [25]: 141%
- % double-positive cells vs WT [26]: 63%
- % double-positive cells vs WT [27]: 94%
- % double-positive cells vs WT [28]: 81%
- % double-positive cells vs WT [29]: 39%

B2: Clone C VNAR-hFc fusion (Fc fusion, not shown: a dimerising Fc or GST)
chain: ARVDQTPQTITKETGESLTINCVLRDSNCALSSTYWYRKKSGSTNEENISKGGRYVETVNSGSKSFSLRINDLTVEDSGTYRCNVVQYPSYNNYFWCDVYGDGTAVTVN
notes: bivalent VNAR-Fc; also called Clone C-hFc
- % double-positive cells vs WT [1]: 157%
- % double-positive cells vs WT [2]: 257%
- % double-positive cells vs WT [3]: 68%
- % double-positive cells vs WT [4]: 212%
- % double-positive cells vs WT [5]: 182%
- % double-positive cells vs WT [6]: 100%
- % double-positive cells vs WT [7]: 177%
- % double-positive cells vs WT [8]: 180%
- % double-positive cells vs WT [9]: 14%
- % double-positive cells vs WT [10]: 136%
- % double-positive cells vs WT [11]: 328%
- % double-positive cells vs WT [12]: 239%
- % double-positive cells vs WT [13]: 111%
- % double-positive cells vs WT [14]: 90%
- % double-positive cells vs WT [15]: 193%
- % double-positive cells vs WT [16]: 148%
- % double-positive cells vs WT [17]: 35%
- % double-positive cells vs WT [18]: 357%
- % double-positive cells vs WT [19]: 51%
- % double-positive cells vs WT [20]: 137%
- % double-positive cells vs WT [21]: 166%
- % double-positive cells vs WT [22]: 72%
- % double-positive cells vs WT [23]: 97%
- % double-positive cells vs WT [24]: 26%
- % double-positive cells vs WT [25]: 50%
- % double-positive cells vs WT [26]: 236%
- % double-positive cells vs WT [27]: 169%
- % double-positive cells vs WT [28]: 58%
- % double-positive cells vs WT [29]: 27%

B3: Clone C variant 13 VNAR-hFc (Fc fusion, not shown: a dimerising Fc or GST)
chain: B2 chain with S90Q, Y91Q, N92D
notes: also called Clone C v13; Clone C var; 13
- % double-positive cells vs WT [1]: 77%
- % double-positive cells vs WT [2]: 79%
- % double-positive cells vs WT [3]: 65%
- % double-positive cells vs WT [4]: 73%
- % double-positive cells vs WT [5]: 84%
- % double-positive cells vs WT [6]: 100%
- % double-positive cells vs WT [7]: 85%
- % double-positive cells vs WT [8]: 73%
- % double-positive cells vs WT [10]: 77%
- % double-positive cells vs WT [11]: 121%
- % double-positive cells vs WT [12]: 73%
- % double-positive cells vs WT [13]: 56%
- % double-positive cells vs WT [14]: 72%
- % double-positive cells vs WT [15]: 81%
- % double-positive cells vs WT [16]: 83%
- % double-positive cells vs WT [17]: 22%
- % double-positive cells vs WT [18]: 111%
- % double-positive cells vs WT [20]: 84%
- % double-positive cells vs WT [21]: 103%
- % double-positive cells vs WT [22]: 36%
- % double-positive cells vs WT [23]: 54%
- % double-positive cells vs WT [25]: 22%
- % double-positive cells vs WT [27]: 75%
- % double-positive cells vs WT [28]: 47%
- % double-positive cells vs WT [29]: 25%
